# System: IPF fibroblasts
# Assay: qPCR of extracellular matrix genes collagen 7a1 and matrix metalloproteinase inhibitor 1 in TGFβ-induced IPF fibroblasts
# Type: cell-based, human
# Details: Example 3, FIG. 4-6, TGFβ-induced IPF fibroblasts treated 48 hours, 18sRNA reference
# Text: IPF fibroblasts of patients were purchased from the ATCC cell library.
# IPF fibroblasts in Method 2 were collected. Total mRNA was extracted by Trizol method (Invitrogen, Carlsbad, CA) according to standard protocols. Complementary DNA was synthesized using reverse transcriptase (Takara). ABI7000 Real-time PCR instrument (Life Technologies) was used to detect gene expression and the PCR primer sequences are shown in Table 1. The 18sRNA gene was used as an internal reference.
# Experimental groups including anti-Pear1 antibodies LF11, LF15, LF16 used alone, and their combinations with pirfenidone or nintedanib respectively, and experimental groups including pirfenidone or nintedanib used alone and a control group were established. TGFβ-induced IPF fibroblasts were treated for 48 hours, and then cells were collected. The qPCR method was used to detect the effect on the synthesis of extracellular matrix proteins collagen 7a1 and matrix metalloproteinase inhibitor 1 (primers are shown in Table 1).
molecule,measurement,value
"COC(=O)c1ccc2c(c1)NC(=O)/C2=C(\Nc1ccc(N(C)C(=O)CN2CCN(C)CC2)cc1)c1ccccc1 [nintedanib, reference compound]","inhibition of expression of extracellular matrix proteins (collagen 7a1, matrix metalloproteinase inhibitor 1) in IPF fibroblasts",inhibit the expression of extracellular matrix proteins in IPF fibroblasts to some extent
"Cc1ccc(=O)n(-c2ccccc2)c1 [pirfenidone, reference compound]","inhibition of expression of extracellular matrix proteins (collagen 7a1, matrix metalloproteinase inhibitor 1) in IPF fibroblasts",inhibit the expression of extracellular matrix proteins in IPF fibroblasts to some extent
"LF15: anti-human Pear1 monoclonal antibody; VH SEQ ID NO: 4, VL SEQ ID NO: 19 (antibody, V domains shown) VH: EVQLQQSGPELVKPGASMKISCKASGYSFTGYTMNWVKQSHGENLEWIGVINPYNGGTSYNQKFKGKATLTVDKSFSTAYMEILSLTSEDSAVYYCSRGGGNSWFAYWGQGTLVTVSA VL: DIQMTQTSSYLSVSLGGRVTITCKASDHINNWLAWYQQKPGNAPRLLISGATSLETGVPSRFSGSGSGTDYSLTITSLQTEDVATYYCQQYWSIPTFGGGTRLEIK","inhibition of expression of extracellular matrix proteins (collagen 7a1, matrix metalloproteinase inhibitor 1) in IPF fibroblasts",inhibit the expression of extracellular matrix proteins in IPF fibroblasts to some extent
"LF16: anti-human Pear1 monoclonal antibody; VH SEQ ID NO: 5, VL SEQ ID NO: 20 (antibody, V domains shown) VH: EVQLQQSGPELVKPGASMKISCKASGYAFTGYTMNWVKQSHGKNLDWIGVINGYNGGTSYNQKFKGKATLTVDKSSSTAYMELLSLTSEDSAIYYCARGGPTTGFVYWGQGTLVTVSA VL: DIQMTQTSSSFSVSLGDRVTITCKASEDIYNRLAWYQQKPGNAPRLLISGATSLETGVPSRFSGSGSGKDYTLSITSLQTEDVATYYCQQYWSTPTFGAGTKLELK","inhibition of expression of extracellular matrix proteins (collagen 7a1, matrix metalloproteinase inhibitor 1) in IPF fibroblasts",inhibit the expression of extracellular matrix proteins in IPF fibroblasts to some extent
"LF11: anti-human Pear1 monoclonal antibody; VH SEQ ID NO: 2, VL SEQ ID NO: 18 (antibody, V domains shown) VH: EVQLQQSGPELVKPGASMKISCKASGYSFTGYPMNWVKQTHGKNLEWIGLINPYNGGTSYNQKFKGKATLTVDKSSSTAYMELLSLTSDESAVYYCARGGVRPFDFWGQGTLVTVSA VL: DIVITQSPAIMSASPGEKVTMTCSARSSVSYMYWYQQKPGSSPRLLIYDTSKLASGVPVRFSGSGSGTSYSLTISRMEAEDAATYFCQQWSSYPPTFGGGTKLEIK","inhibition of expression of extracellular matrix proteins (collagen 7a1, matrix metalloproteinase inhibitor 1) in IPF fibroblasts",inhibit the expression of extracellular matrix proteins in IPF fibroblasts to some extent

# — patent publication US20250090523A1, “PHARMACEUTICAL COMPOSITION OR DRUG KIT FOR ALLEVIATING OR TREATING FIBROTIC DISEASES, AND USE THEREOF” (SHANGHAI SYNVIDA BIOTECHNOLOGY CO. LTD., priority 2021, published 2025)
